Measurements as given in patent US20250051407A1, “De novo designed sequence-specific DNA binding proteins” (University of Washington, priority 2023, published 2025).
“Also recorded” adds a separate entry of the source.

Assays:
[1] = test system: 13 unique dsDNA targets; assay: All-by-all yeast surface display screen of DBP design hits; type: binding; details: for Target sequence preference: 13 unique dsDNA targets; for Number of the 13 tested DNA target sequences preferentially bound: including designed target sequence; for Binding specificity versus design models: all-by-all screen with Rosetta-predicted motifs
Protocol: And an all-by-all screen of DBP design hits to 13 unique dsDNA targets was performed (FIG. 4, table 2). […] To try to understand these observed binding preferences, each tested DNA sequence was threaded onto each design complex model at all possible base pair alignments, the alternative complex models were relaxed with Rosetta™, and the model with the most favorable Rosetta™ ΔΔG was selected.
Saccharomyces cerevisiae EBY100 strain cultures were grown in C-Trp-Ura medium supplemented with 2% (w/v) glucose. For induction of expression, yeast cells were centrifuged at 6,000 g for 1 min and resuspended in SGCAA medium supplemented with 0.2% (w/v) glucose at the cell density of 1×10^7 cells per ml and induced at 30° C. for 16-24 h. Cells were washed with PBSF (PBS with 1% (w/v) BSA) and labeled with biotinylated targets using two labeling methods: with-avidity and without-avidity labeling. For the with-avidity method, the cells were incubated with biotinylated target, together with anti-c-Myc fluorescein isothiocyanate (FITC, Miltenyi Biotech) and streptavidin-phycoerythrin (SAPE, ThermoFisher). The concentration of SAPE in the with-avidity method was used at one-quarter of the concentration of the biotinylated targets. For the without-avidity method, the cells were first incubated with biotinylated targets, washed and secondarily labeled with SAPE and FITC.
(§1) For yeast display characterization of individual designs, including competition assays, DNA sequences encoding the proteins of interest were purchased as Integrated DNA Technologies (IDT) E-Blocks™, transformed into yeast cells, and incubated in 96 well culture plates. Labeling with biotinylated dsDNA targets and SAPE/FITC was performed in a 96 well plate format. For yeast display competition assays, labeling was performed without avidity using 1 μM biotinylated dsDNA duplex oligos and an excess of 8 μM non-biotinylated competitor dsDNA duplex oligos. […] Flow cytometry analysis was performed with an Attune NxT™ flow cytometer with autosampler. Flow cytometry data analysis was performed using custom python code and the CytoFlow™ python package. For each individual sample, gating of the expression population was performed using the CytoFlow™ Gaussian Mixture Model and the ratio of SAPE channel intensity to FITC channel intensity (binding signal/expression signal) was calculated for all gated expression events of the sample.

[2] = test system: synTF-specific cis-regulatory elements (CRE) in HEK293T cells; assay: Transcriptional activation by synTFs in HEK293T cells (ENGRAM); type: cell-based; details: DBP fused to GCN4 dimerization domain and VP64; HEK293T cells expressing PEmax; dependent on spacing between motifs
Text: Next, we investigated whether the DBPs can be used as activators in mammalian cells. A set of synthetic transcription factors (synTFs) were created by fusing the GCN4 dimerization domain and the VP64 activation domain to the C-termini of DBPs 9, 35opt, 48, 57, and 60 which recognize 3 unique motifs. The dimerization domain allows the DBPs to recognize a palindromic target sequence consisting of two binding motifs, improving the binding affinity to the DNA sequence (FIG. 2C). We created synTF specific cis-regulatory elements (CRE) with 4 repeats spaced by 6 bp to drive the expression of downstream genes, and used the ENGRAM (43) recording technology to measure the activity of the synTFs in HEK293 cells. In ENGRAM, each CRE drives the expression of a uniquely barcoded pegRNA, which upon expression is recorded into the DNA TAPE at the HEK3 locus by prime-editor (PEmax); the activity of individual synTFs can be measured as the abundance of the barcode on the DNA TAPE (FIG. 2C). We first tested 3 different spacings-1 bp, 3 bp, and 5 bp-between the palindromic binding motifs to maximize the recorder activity. 3 synTF specific recorders and 1 TCF-LEF-recorder (negative control) were mixed with ratio 2:2:2:1 and co-transfected with synTFs into the HEK293T cells expressing PEmax. Cells were harvested and analyzed 2 days post-transfection. After analyzing the barcode abundance on the DNA TAPE, we observed 3-5 fold activation for DBP9/DBP35 and DBP57/DBP60 (FIG. 2D).
HEK293T cells expressing PEmax™ were cultured in DMEM High glucose (GIBCO), supplemented with 10% Fetal Bovine Serum (Rocky Mountain Biologicals) and 1% penicillin-streptomycin (GIBCO). Cells were grown with 5% CO2 at 37° C. 1×10^5 cells were seeded on a 48-well plate a day before transfection. Enhancer plasmid and binder plasmid were mixed with a ratio of 2:1. Enhancer variants and background control were mixed with a ratio of 2:2:2:1. A total of 300 ng of plasmid were transfected using Lipofectamine™ 3000 (ThermoFisher, L3000015), following the manufacturer's protocol. Cells were harvested 2 days post-transfection. Genomic DNA was extracted based on the protocol described earlier (43). Briefly, cells were lysed using freshly prepared lysis buffer (10 mM Tris-HCl, pH 7.5; 0.05% SDS; 25 µg/ml protease (ThermoFisher)) for each well. The genomic DNA mixture was incubated at 50° C. for 1 h, followed by an 80° C. enzyme inactivation step for 30 min. The DNA TAPE was amplified from the genomic DNA directly for next generation sequencing. Recorded information was extracted via custom analysis code. Each enhancer has a unique barcode representing its activity. Transcription activation was measured as the fold change in the barcode abundance relative to the negative control barcode. All measurements were performed in triplicates.

[3] = test system: biotinylated target dsDNA with non-biotinylated competitor dsDNA; assay: Yeast display competition assay with base-substituted competitor dsDNA; type: binding; details: all possible base mutations at each position of the competitor oligo
Text: We used a yeast display competition assay to characterize the DNA binding site specificity of a subset of the designs (FIG. 1A-E, left; FIG. 5). Addition of non-biotinylated competitor dsDNA to biotinylated target sequence reduced binding signal by flow cytometry (FIG. 1A-E, middle). […] For example, in DBP6 (FIG. 1A) R31 and R36 in the design model form bidentate hydrogen bonds with the guanines of base pair positions G12 and C9, respectively, while T32 forms a hydrogen bond with C10.
as §1

Molecule	Target sequence preference [1]	Number of the 13 tested DNA target sequences preferentially bound ([1]; 1 μM dsDNA with avidity)	Binding specificity versus design models [1]	also measured
DBP44: designed DNA-binding protein, SEQ ID NO: 18, DNA target G (KEERVLAALEAHPWSTLAEIAELTGLSRSTVSRILSRLRKEGKCDSRREGRKVRYWLVRR)	bound to most of the targets	–	–	–
DBP52: designed DNA-binding protein, SEQ ID NO: 26, DNA target E (RPLTPAEVFGRELRRLRRAAGLTQAELAERAGIGQGTVSRYEHGRRLPSPEEQERLLAAL)	strong preference for 2 or 3 of the sequence targets	–	–	–
DBP51: designed DNA-binding protein, SEQ ID NO: 25, DNA target E (MEADPAVVFGRRLRAARRAKGLTQAELAERAGLGQGTISRYEKGRTLPSPEQVEKLLAAL)	–	less than 3	bound with specificity closely consistent with the design models	–
DBP69: designed DNA-binding protein, SEQ ID NO: 38, DNA target C (MKEEGRKLKELRERLGLTQAELAEALGLGQSTISRLERGRKEISPEVWEKALALLE)	–	less than 3	bound with specificity closely consistent with the design models	–
DBP23: designed DNA-binding protein, SEQ ID NO: 9, DNA target B (PLAELGKAIKEARKRKGLTQAEVAKAAGVSRATVQRLELGKAKSIRPDKLRAILEVVGL)	bound to most of the targets	–	–	–
DBP83: designed DNA-binding protein, SEQ ID NO: 43, DNA target A (PREREILRLLAEGKNAWEIAQILNISVRTVRNHLRNAMRKLGARNRVQAVARALRLG)	–	less than 3	–	–
DBP9: designed DNA-binding protein, SEQ ID NO: 6, DNA target B (DWERRCAYARRARKELGLTQAELGELAGVSRTTVSRIERGKPDVSEASVEAVLAVL)	strong preference for only their designed target sequence	less than 3	bound with specificity closely consistent with the design models	Fold activation of synTFs measured as normalized barcode abundance in the DNA TAPE [2]: 3-5 fold; DNA binding site specificity [3]: specificity for a 6 nucleotide stretch (TGCACA) with peripheral dependence on T8 and A13
DBP90: designed DNA-binding protein, SEQ ID NO: 49, DNA target A (NKYQLSLLESAFQSNRYPDISQRATLASQTGLPERRIKIWFQNRRQRWKRKK)	–	–	–	Binding to initial design target ([1]; yeast surface display, 1 μM dsDNA with avidity): bound weakly; Binding to alternate target sequence ([1]; yeast surface display, 1 μM dsDNA with avidity, alternate target H (DBP90), D (DBP48), C (DBP57)): strongly
DBP62: designed DNA-binding protein, SEQ ID NO: 36, DNA target F (protein) KEELEKLLKIIESLPKKFREVIILKFVEGLSYTEIAERLGVSRGAVYSRLRSALKKIEEALKK	strong preference for only their designed target sequence	less than 3	bound with specificity closely consistent with the design models	DNA binding site specificity [3]: dependent on bases peripheral to the binding site (e.g. C11); also recorded: exhibited specificity for its target site
DBP43: designed DNA-binding protein, SEQ ID NO: 17, DNA target G (protein) MEELKKLLESGDPKLQGEAVKKIREKLGLTQREFGKKIGVGQAKVSRIEAGKIKLTPELKEKILE	–	–	bound with specificity closely consistent with the design models	–
DBP5: designed DNA-binding protein, SEQ ID NO: 3, DNA target A (protein) GFGKAVKAKRAELGLTQAEFAERAGLSRRTIIRIEQGKVKATSTTAEKIAAALGTTVQELEQA	–	–	bound with specificity closely consistent with the design models	–
DBP47: designed DNA-binding protein, SEQ ID NO: 21, DNA target D (protein) MTPEERERAKEIGREIRELRRERGLTQRELADLLGVSRSTVSDIESGRRLPSEELLRRIREILGV	–	less than 3	bound with specificity closely consistent with the design models	–
DBP60: designed DNA-binding protein, SEQ ID NO: 34, DNA target E (protein) DIEKIAKAVKELREELGLTQAEFAKKIGIGQGTLSRFEKGGVLSPKTMERLLKALEKEFGFDVKK	strong preference for 2 or 3 of the sequence targets	less than 3	bound with specificity closely consistent with the design models	Fold activation of synTFs measured as normalized barcode abundance in the DNA TAPE [2]: 3-5 fold
DBP89: designed DNA-binding protein, SEQ ID NO: 48, DNA target A (protein) SPAAFDKLTARELAVARLVAQGLPNREIAAALHISPRAVEAHLRKIYRKLGIRRRRELAALLA	bound to most of the targets	–	–	–
DBP56: designed DNA-binding protein, SEQ ID NO: 30, DNA target E (protein) PPPTPFEVAGARIKEERAKLGLTQAELAKVAGVGQATVSRIEKGRKCSWELIEKIFEALKKV	–	less than 3	bound with specificity closely consistent with the design models	DNA binding site specificity [3]: specificities consistent with the designed sidechain-base interactions
